Source: PMC4792234, “Modulation of MICAL Monooxygenase Activity by its Calponin Homology Domain: Structural and Mechanistic Insights” (Scientific Reports, 2016)

T1: MICALMO-CH (mMICAL-1 residues 2-615) (Mus musculus, UniProt Q8VDP3, Q78K)
T1 construct: gene Mical1; MO plus CH domains, residues 2-615, Q78K to remove a protease site; extra Gly from vector; N-terminal His-tag removed with TEV; E. coli BL21, codon-optimised
T1 sequence (Q8VDP3 2-615 Q78K): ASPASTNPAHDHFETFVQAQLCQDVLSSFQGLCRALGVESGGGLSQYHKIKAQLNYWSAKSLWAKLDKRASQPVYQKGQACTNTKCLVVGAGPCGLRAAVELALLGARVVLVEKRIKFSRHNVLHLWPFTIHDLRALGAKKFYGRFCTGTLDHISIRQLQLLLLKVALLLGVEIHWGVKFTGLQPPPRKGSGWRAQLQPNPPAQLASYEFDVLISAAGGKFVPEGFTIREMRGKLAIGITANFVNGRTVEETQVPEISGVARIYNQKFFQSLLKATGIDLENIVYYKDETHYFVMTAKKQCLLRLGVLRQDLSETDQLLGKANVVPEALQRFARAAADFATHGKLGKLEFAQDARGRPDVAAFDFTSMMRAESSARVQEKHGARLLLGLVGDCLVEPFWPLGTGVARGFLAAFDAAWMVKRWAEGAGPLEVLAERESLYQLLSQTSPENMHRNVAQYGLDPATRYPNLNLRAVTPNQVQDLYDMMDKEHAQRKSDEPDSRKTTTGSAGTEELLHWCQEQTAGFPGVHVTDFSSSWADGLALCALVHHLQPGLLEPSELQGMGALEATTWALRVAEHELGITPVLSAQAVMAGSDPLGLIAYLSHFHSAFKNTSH


What was measured:
[1] = target: T1, MICALMO-CH (mMICAL-1 residues 2-615); assay: X-ray crystallography, […] and […] Å; type: binding; conditions: oxidised FAD in the MO domain; two crystal forms
purified protein = substrate: NC(=O)C1=CN([C@@H]2O[C@H](COP(=O)(O)OP(=O)(O)OC[C@H]3O[C@@H](n4cnc5c(N)ncnc54)[C@H](OP(=O)(O)O)[C@@H]3O)[C@@H](O)[C@H]2O)C=CC1; assay: purified protein; type: biochemical, Mus musculus; conditions: no F-actin, O2 as acceptor, 5 mM Tris-HCl pH 8.0, 50 mM KCl, 2 mM MgCl2, 0.2 mM CaCl2, 0.5 mM DTT, 1 mM ATP, 600 nM enzyme

| Molecule | X-ray crystallography, 2.31 and 2.88 Å [1] | Km (purified protein) [µM] | kcat (purified protein) [s⁻¹] |
| --- | --- | --- | --- |
| Cc1cc2nc3c(=O)[nH]c(=O)nc-3n(C[C@H](O)[C@H](O)[C@H](O)COP(=O)(O)OP(=O)(O)OC[C@H]3O[C@@H](n4cnc5c(N)ncnc54)[C@H](O)[C@@H]3O)c2cc1C [FAD] | In both crystal forms the FAD cofactor is oxidized and accessible through two openings | – | – |
| MICALMO (mouse MICAL-1 MO domain, residues 1-484) (Mus musculus) (protein, isolated N-terminal FAD monooxygenase domain, residues 1-484 of 1048) MASPASTNPAHDHFETFVQAQLCQDVLSSFQGLCRALGVESGGGLSQYHKIKAQLNYWSAKSLWAKLDKRASQPVYQQGQACTNTKCLVVGAGPCGLRAAVELALLGARVVLVEKRIKFSRHNVLHLWPFTIHDLRALGAKKFYGRFCTGTLDHISIRQLQLLLLKVALLLGVEIHWGVKFTGLQPPPRKGSGWRAQLQPNPPAQLASYEFDVLISAAGGKFVPEGFTIREMRGKLAIGITANFVNGRTVEETQVPEISGVARIYNQKFFQSLLKATGIDLENIVYYKDETHYFVMTAKKQCLLRLGVLRQDLSETDQLLGKANVVPEALQRFARAAADFATHGKLGKLEFAQDARGRPDVAAFDFTSMMRAESSARVQEKHGARLLLGLVGDCLVEPFWPLGTGVARGFLAAFDAAWMVKRWAEGAGPLEVLAERESLYQLLSQTSPENMHRNVAQYGLDPATRYPNLNLRAVTPNQVQDLYD | – | 28.8 ± 2.2 | 0.68 ± 0.02 |
| MICALMO-CH (mMICAL-1 residues 2-615) (Mus musculus; Q78K) (protein, MO plus CH domains, residues 2-615, Q78K to remove a protease site; extra Gly from vector; N-terminal His-tag removed with TEV; E. coli BL21, codon-optimised) ASPASTNPAHDHFETFVQAQLCQDVLSSFQGLCRALGVESGGGLSQYHKIKAQLNYWSAKSLWAKLDKRASQPVYQKGQACTNTKCLVVGAGPCGLRAAVELALLGARVVLVEKRIKFSRHNVLHLWPFTIHDLRALGAKKFYGRFCTGTLDHISIRQLQLLLLKVALLLGVEIHWGVKFTGLQPPPRKGSGWRAQLQPNPPAQLASYEFDVLISAAGGKFVPEGFTIREMRGKLAIGITANFVNGRTVEETQVPEISGVARIYNQKFFQSLLKATGIDLENIVYYKDETHYFVMTAKKQCLLRLGVLRQDLSETDQLLGKANVVPEALQRFARAAADFATHGKLGKLEFAQDARGRPDVAAFDFTSMMRAESSARVQEKHGARLLLGLVGDCLVEPFWPLGTGVARGFLAAFDAAWMVKRWAEGAGPLEVLAERESLYQLLSQTSPENMHRNVAQYGLDPATRYPNLNLRAVTPNQVQDLYDMMDKEHAQRKSDEPDSRKTTTGSAGTEELLHWCQEQTAGFPGVHVTDFSSSWADGLALCALVHHLQPGLLEPSELQGMGALEATTWALRVAEHELGITPVLSAQAVMAGSDPLGLIAYLSHFHSAFKNTSH | – | 37.7 ± 8.4 | 1.7 ± 0.5 |
